Test results taken from paper PMC7611929 (Nature structural & molecular biology, 2021).

B1: TRIM21 RING-Box-Coiled-Coil (T21RBCC; residues 1-235) (domain or fragment, UniProt P19474 1-235, looked up)
chain: MASAARLTMMWEEVTCPICLDPFVEPVSIECGHSFCQECISQVGKGGGSVCPVCRQRFLLKNLRPNRQLANMVNNLKEISQEAREGTQGERCAVHGERLHLFCEKDGKALCWVCAQSRKHRDHAMVPLEEAAQEYQEKLQVALGELRRKQELAEKLEVEIAIKRADWKKTVETQKSRIHAEFVQQKNFLVEEEQRQLQELEKDEREQLRILGEKEAKLAQQSQALQELISELDRR
B2: TRIM21 coiled-coil (T21CC235; residues 129-235) (domain or fragment, UniProt P19474 129-235, looked up)
chain: EEAAQEYQEKLQVALGELRRKQELAEKLEVEIAIKRADWKKTVETQKSRIHAEFVQQKNFLVEEEQRQLQELEKDEREQLRILGEKEAKLAQQSQALQELISELDRR

How the values were obtained:
AUC = molecular target: the molecule itself; experiment: AUC
SEC-MALS = molecular target: the molecule itself; experiment: SEC-MALS

Protein	binding result (AUC)	stoichiometry N (SEC-MALS)
B1	binds	–
B2	–	2
